Results: paper PMC2958806

Key:
[1] = molecular target: DENV2 E DI/II protein (E domains I and II, E residues 1-291) (dengue virus 2 (New Guinea C strain))
[2] = molecular target: DENV2 E DI/II H244A (dengue virus 2 (New Guinea C strain))

| Substance | liposome co-floatation of DI/II at low pH in the presence of DIII (no co-floatation when BSA was substituted for DIII) [1] | liposome co-floatation of H244A DI/II at pH 5.75 with DIII, efficiency of floatation in the presence of pr (43% in the absence of pr) [2] |
| --- | --- | --- |
| DENV2 NGC DIII (LDIIIH1CS, E residues 289-430) (domain or fragment) | 25% | – |
| DENV2 pr peptide (recombinant, prM residues 1-86 with tandem Strep tag) (domain or fragment) | – | 47% |
